Here are results for one molecule from patent US9284541B2, “Methods and compositions for protein labeling using lipoic acid ligases” (Massachusetts Institute of Technology, priority 2007, dated 2016).

Bounds are passed on as bounds.

In data set [1] the target is T1, LAP2 (Escherichia coli, UniProt P32099, W38V). Particulars: coumarin ligation.
The next data set has as its target FKBP-LAP1 (Escherichia coli, UniProt P32099, W38V).
Data set [2] concerns FKBP-LAP1 and FRB-LplAW37V. Particulars: FRB fusions, ID-PRIME labeling of FKBP-LAP1.
Experimental: Growth media was then removed and the cells were labeled by applying 20 μM coumarin-AM2 in serum-free DMEM at 37° C. for 10 minutes. Excess coumarin was washed out with three changes of fresh DMEM over 60 minutes at 37° C. Cells were imaged in DPBS. Confocal images were acquired at 60× magnification.
The next data set has as its system LAP-YFP fusion protein. The data set can be described thus: Orthogonal resorufin and 7-hydroxycoumarin labeling in living HEK 293T cells. The conditions noted are these: 5 μM resorufin-AM2 and 20 μM 7-hydrozycoumarin-AM2, 10 minutes.
Data set [3] deals with LAP peptide (sequence=GFEIDKVWYDLDA). Particulars: 1 μM ligase, 200 μM LAP peptide, 500 μM resorufin-AM2, 30° C., 1 hour. Here is the method: These DNA fragments were cloned into expression vectors and expressed in E. coli cells. The ligase activity of the LplA mutants thus prepared in catalyzing formation of resorufin-LAP conjugate was tested as described below. 1 μM Lipoic acid ligase, 200 μM, LAP peptide (sequence=[…]), ligase, 500 μM resorufin-AM2, 2 mM ATP, and 5 mM magnesium acetate were mixed in an Eppendorf tube and incubated at 30° C. for 1 hour. Components in the mixture were analyzed by C18 HPLC and tandem ESI-MS, using 15%→40% acetonitrile linear gradient over 8 minutes containing 0.1% formic acid to resolve resorufin, LAP, and resorufin-LAP conjugate. A mixtures omitting ATP or the lipoic acid ligase was used as a negative control.

In data set [4] the target is T1, LAP2. The conditions noted are these: cited from earlier work.

Experimental for LAP-YFP fusion protein: After being rinsed with DPBS or HBSS, the transfected cells were incubated with 5 μM resorufin-AM2 and 20 μM 7-hydrozycoumarin-AM2 at 37° C. for 10 minutes.
The cells were washed with the culture medium, cultured at 37° C. for 30 minutes, and observed under a fluorescent microscope.

B1: W37V: E. coli LplA single mutant W37V, coumarin ligase (protein)
chain: STLRLLISDSYDPWFNLAVEECIFRQMPATQRVLFLVRNADTVVIGRAQNPWKECNTRRMEEDNVRLARRSSGGGAVFHDLGNTCFTFMAGKPEYDKTISTSIVLNALNALGVSAEASGRNDLVVKTVEGDRKVSGSAYRETKDRGFHHGTLLLNADLSRLANYLNPDKKKLAAKGITSVRSRVTNLTELLPGITHEQVCEAITEAFFAHYGERVEAEIISPNKTPDLPNFAETFARQSSWEWNFGQAPAFSHLLDERFTWGGVELHFDVEKGHITRAQVFTDSLNPAPLEALAGRLQGCLYRADMLQQECEALLVDFPEQEKELRELSAWMAGAVR
modifications: E. coli
Regarding B1, in the data set with LAP2 [1], the Kcat for coumarin was found to be 0.019 s⁻¹. Besides, the “catalytic rate slower than lipoic acid ligation” value with FKBP-LAP1 is 22 times. In the data set with FKBP-LAP1 (purified FKBP-LAP1), the “kcat for coumarin ligation to LAP1” value was found to be 0.60 ± 0.06 min⁻¹. For the same molecule, the Michaelis constant (Km) (in general, the substrate concentration at which the rate is half of its maximum) with FKBP-LAP1 (read-out: Km of the enzyme for LAP1, coumarin probe, purified FKBP-LAP1) worked out at 681 ± 168 µM. In addition, the “background versus expression level” value in data set [2] is reported as “increased with expression level”. For the same molecule, in the data set on LAP-YFP fusion protein, the “substrate specificity in cells” value is recorded as “only catalyzes conjugate of 7-hydroxycoumarin”. Further, in data set [3], the “Yield of resorufin-LAP conjugate” value is recorded as below 5%. For the same molecule, the “reported kcat for coumarin ligation to LAP2” value with LAP2 [4] is 1.14 min⁻¹.
